Results on three molecules are retold here after publication PMC8141872 (The Journal of Biological Chemistry, 2021).

B1: Ras suppressor-1 (Rsu-1), wild type, full length (natural protein, human, UniProt Q15404 1-277, looked up)
chain: MSKSLKKLVEESREKNQPEVDMSDRGISNMLDVNGLFTLSHITQLVLSHNKLTMVPPNIAELKNLEVLNFFNNQIEELPTQISSLQKLKHLNLGMNRLNTLPRGFGSLPALEVLDLTYNNLSENSLPGNFFYLTTLRALYLSDNDFEILPPDIGKLTKLQILSLRDNDLISLPKEIGELTQLKELHIQGNRLTVLPPELGNLDLTGQKQVFKAENNPWVTPIADQFQLGVSHVFEYIRSETYKYLYGRHMQANPEPPKKNNDKSKKISRKPLAAKNR
notes: after thrombin cleavage a few of its residues probably remain (surmised); also called Rsu-1 (WT); Rsu-1 WT; not shown: His6, N-terminal, cleaved

What all share (conditions): both partners purified
In assay [1] the target is T1, PINCH-1 (residues 1-325), as subunit of the IPP complex (human, UniProt P48059 1-325).
T1 construct: human PINCH-1, residues 1-325; Stood in the assay within the IPP complex; source: E. coli, co-expressed with ILK and α-parvin, purified as the IPP complex
The assay can be described thus: SEC; Superose 6 10/300 GL; purified IPP heterotrimer mixed with purified Kindlin-2 and Rsu-1, 4 °C at least 2 h; 20 mM Tris pH 7.5, 150 mM NaCl, 5% glycerol, 0.2 mM TCEP; peak reloaded on the same column. (In gel filtration, larger molecules generally elute earlier.)

Assay [2] concerns the target B1. The assay can be described thus: BLI; BLItz; GST-fused PINCH protein or GST (0.05 mg/ml) loaded on anti-GST biosensor, Rsu-1 WT or mutant in the mobile phase; 20 mM Tris pH 7.5, 150 mM NaCl, 1 mg/ml BSA, 0.05% Tween-20; 1:1 global fit; at least three measurements.
Assay [3] has as its target T2, Kindlin-2 (residues 1-680) (human, UniProt Q96AC1 1-680).
T2 construct: human kindlin-2, residues 1-680; source: SUMO-tag cleaved by Ulp1
T2 sequence (looked up): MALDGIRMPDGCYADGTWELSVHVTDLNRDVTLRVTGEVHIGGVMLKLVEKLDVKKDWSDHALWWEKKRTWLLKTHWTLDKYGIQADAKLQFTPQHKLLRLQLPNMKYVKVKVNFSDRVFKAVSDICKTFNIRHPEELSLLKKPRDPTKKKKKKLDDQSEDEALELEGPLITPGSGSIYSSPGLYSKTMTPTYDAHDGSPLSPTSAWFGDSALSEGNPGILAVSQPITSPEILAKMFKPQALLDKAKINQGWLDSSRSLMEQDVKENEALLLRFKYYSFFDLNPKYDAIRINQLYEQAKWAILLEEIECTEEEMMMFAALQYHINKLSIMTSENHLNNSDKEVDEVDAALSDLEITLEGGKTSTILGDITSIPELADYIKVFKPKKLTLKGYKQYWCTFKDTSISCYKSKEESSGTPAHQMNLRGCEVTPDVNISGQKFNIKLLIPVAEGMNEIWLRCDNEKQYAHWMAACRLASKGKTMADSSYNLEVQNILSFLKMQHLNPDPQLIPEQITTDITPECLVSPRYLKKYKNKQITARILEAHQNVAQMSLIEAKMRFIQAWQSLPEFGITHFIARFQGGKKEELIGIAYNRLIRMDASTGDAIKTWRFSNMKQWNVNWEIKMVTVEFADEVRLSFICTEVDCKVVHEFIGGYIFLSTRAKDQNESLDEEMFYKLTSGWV
The assay can be described thus: SEC; Superose 6 10/300 GL; purified IPP heterotrimer mixed with purified Kindlin-2 and Rsu-1, 4 °C at least 2 h; 20 mM Tris pH 7.5, 150 mM NaCl, 5% glycerol, 0.2 mM TCEP; peak reloaded on the same column.

T1 sequence (P48059 whole entry, the tested form may be a part, one chain of several): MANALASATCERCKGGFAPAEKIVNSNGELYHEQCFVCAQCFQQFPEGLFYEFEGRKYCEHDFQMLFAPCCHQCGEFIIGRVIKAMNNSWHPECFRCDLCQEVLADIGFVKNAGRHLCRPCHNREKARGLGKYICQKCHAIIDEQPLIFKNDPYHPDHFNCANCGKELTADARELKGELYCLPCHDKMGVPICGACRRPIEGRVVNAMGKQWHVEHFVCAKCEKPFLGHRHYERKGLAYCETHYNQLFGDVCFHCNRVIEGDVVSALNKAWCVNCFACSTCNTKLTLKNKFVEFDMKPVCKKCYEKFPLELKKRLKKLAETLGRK

With B1, the binding result in assay [1] is “binds”.

B2: GST-fused PINCH-2 LIM5S domain (residues 254-330) (domain or fragment, human, UniProt Q7Z4I7 254-330, looked up)
chain: GDVCYNCSHVIEGDVVSALNKAWCVSCFSCSTCNSKLTLKNKFVEFDMKPVCKRCYEKFPLELKKRLKKLSELTSRK
notes: human PINCH-2 LIM5 domain without the C-terminal 11 residues, residues 254-330; Cloned in pGEX4T1; held on the anti-GST biosensor; also called PINCH-2 LIM5S domain (WT); PINCH-2 LIM5 short domain; source: E. coli Rosetta 2 (DE3), purified (GSTrap)
As a reminder, the Kd is the free concentration of one partner at which half of the binding sites on the other are occupied at equilibrium, for simple one-to-one binding. Regarding B2, the Kd in assay [2] is 925 ± 194 nM.

B3: Integrin-linked kinase (ILK, residues 1-452), as subunit of the IPP complex (natural protein, human, UniProt Q13418 1-452, looked up)
chain: MDDIFTQCREGNAVAVRLWLDNTENDLNQGDDHGFSPLHWACREGRSAVVEMLIMRGARINVMNRGDDTPLHLAASHGHRDIVQKLLQYKADINAVNEHGNVPLHYACFWGQDQVAEDLVANGALVSICNKYGEMPVDKAKAPLRELLRERAEKMGQNLNRIPYKDTFWKGTTRTRPRNGTLNKHSGIDFKQLNFLTKLNENHSGELWKGRWQGNDIVVKVLKVRDWSTRKSRDFNEECPRLRIFSHPNVLPVLGACQSPPAPHPTLITHWMPYGSLYNVLHEGTNFVVDQSQAVKFALDMARGMAFLHTLEPLIPRHALNSRSVMIDEDMTARISMADVKFSFQCPGRMYAPAWVAPEALQKKPEDTNRRSADMWSFAVLLWELVTREVPFADLSNMEIGMKVALEGLRPTIPPGISPHVCKLMKICMNEDPAKRPKFDMIVPILEKMQDK
notes: human integrin-linked kinase (ILK), residues 1-452; Stood in the assay within the IPP complex; source: E. coli, co-expressed with PINCH-1 and α-parvin, purified as the IPP complex
For the molecule B3, the binding result in assay [3] is on record as “binds”.
